Data on 3 variants can be found in IntAct's records for PubMed 32066962.

The labels stand for the following.
B1: Repressor of RNA polymerase III transcription MAF1 (Saccharomyces cerevisiae), P41910 (parent)
chain: MKFIDELDIERVNQTLNFETNDCKIVGSCDIFTTKAVASDRKLYKTIDQHLDTILQENENYNATLQQQLAAPETNQSPCSSPFYSNRRDSNSFWEQKRRISFSEYNSNNNTNNSNGNSSNNNNYSGPNGSSPATFPKSAKLNDQNLKELVSNYDSGSMSSSSLDSSSKNDERIRRRSSSSISSFKSGKSSNNNYSSGTATNNVNKRRKSSINERPSNLSLGPFGPINEPSSRKIFAYLIAILNASYPDHDFSSVEPTDFVKTSLKTFISKFENTLYSLGRQPEEWVWEVINSHMTLSDCVLFQYSPSNSFLEDEPGYLWNLIGFLYNRKRKRVAYLYLICSRLNSSTGEVEDALAKKPQGKLIIDDGSNEYEGEYDFTYDENVIDDKSDQEESLQ
partner: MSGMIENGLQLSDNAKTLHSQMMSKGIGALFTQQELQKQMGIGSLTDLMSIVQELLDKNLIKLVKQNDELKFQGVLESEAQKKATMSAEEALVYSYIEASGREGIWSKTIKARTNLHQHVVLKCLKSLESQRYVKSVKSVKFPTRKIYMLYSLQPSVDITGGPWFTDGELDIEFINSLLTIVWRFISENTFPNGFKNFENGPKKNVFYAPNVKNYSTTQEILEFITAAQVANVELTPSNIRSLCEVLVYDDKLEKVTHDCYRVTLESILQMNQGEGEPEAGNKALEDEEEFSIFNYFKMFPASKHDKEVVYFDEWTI

In this test the parent is B1. The conditions noted are these: with rpc6_yeast RPC34, P32910.
As to MKFIDELDIERVNQTLNFETNDCKIVGSCDIFTTKAVASDRKLYKTIDQHLDTILQENENYNATLQQQLAAPETNQSPCSSPFYSNRRDSNSFWEQKRRISFSEYNSNNNTNNSNGNSSNNNNYSGPNGSSPATFPKSAKLNDQNLKELVSNYDSGSMSSSSLDSSSKNDERIRRRSSSSISSFKSGKSSNNNYSSGTATNNVNKRRKSSINERPSNLSLGPFGPINEPSSRKIFAYLIAILNASYPAHAFSSVEPTDFVKTSLKTFISKFENTLYSLGRQPEEWVWEVINSHMTLSDCVLFQYSPSNSFLEDEPGYLWNLIGFLYNRKRKRVAYLYLICSRLNSSTGEVEDALAKKPQGKLIIDDGSNEYEGEYDFTYDENVIDDKSDQEESLQ [D248A;D250A], the “effect of a mutation on the interaction” value is “disrupting interaction strength”. As for MKFIDELDIERVNQTLNFETNDCKIVGSCDIFEEKAVASDRKLYKTIDQHLDTILQENENYNATLQQQLAAPETNQSPCSSPFYSNRRDSNSFWEQKRRISFSEYNSNNNTNNSNGNSSNNNNYSGPNGSSPATFPKSAKLNDQNLKELVSNYDSGSMSSSSLDSSSKNDERIRRRSSSSISSFKSGKSSNNNYSSGTATNNVNKRRKSSINERPSNLSLGPFGPINEPSSRKIFAYLIAILNASYPDHDFSSVEPTDFVKTSLKTFISKFENTLYSLGRQPEEWVWEVINSHMTLSDCVLFQYSPSNSFLEDEPGYLWNLIGFLYNRKRKRVAYLYLICSRLNSSTGEVEDALAKKPQGKLIIDDGSNEYEGEYDFTYDENVIDDKSDQEESLQ [T33E;T34E], the “effect of a mutation on the interaction” value is reported as “with no effect”. Regarding MKFIDELDIERVNQTLNFETNDCKIVGSCDIFTTKAVASDRKLYKTIDQHLDTILQENENYNATLQQQLAAPETNQSPCSSPFYSNRRDSNSFWEQKRRISFSEYNSNNNTNNSNGNSSNNNNYSGPNGSSPATFPKSAKLNDQNLKELVSNYDSGSMSSSSLDSSSKNDERIRRRSSSSISSFKSGKSSNNNYSSGTATNNVNKRRKSSINERPSNLSLGPFGPINEPSSRKIFAYLIAILNASYPDHDFSSVEPTDFVKTSLKTFISKFENTLYSLGRQPEEWVWEVINSHMTLSDCVLFQYSPSNSFLEDEPGYSSNLIGFLYNRKRKRVAYLYLICSRLNSSTGEVEDALAKKPQGKLIIDDGSNEYEGEYDFTYDENVIDDKSDQEESLQ [L318S;W319S], the “effect of a mutation on the interaction” value is on record as “with no effect”.
